Source: patent publication US20040241222A1, “Lipid-polymer-conjugates compositions” (priority 2001, published 2004)

Tests used:
[1] = Storage stability of liposomal preparations (percentage encapsulated prednisolone phosphate versus time); type: physicochemical; settings: prednisolone phosphate-containing liposome suspensions, nitrogen atmosphere, 4° C. (FIG. 3)
Source text: FIG. 3 is a graphical representation of the percentage encapsulated prednisolone phosphate in PEG-DSPE and PHEA-DODASuc, respectively, containing liposomal preparations versus time (example 26).

[2] = Kinetics of 3H-labelled liposomes containing lipid-polymer-conjugates after a single intravenous injection to the rat (blood circulation time); type: in vivo; settings: intravenous administration to rats, compared with corresponding PEG-grafted liposomes
Experimental: 100 μl was transferred to a scintillation vial (20 ml).
100 μl of Solvable was added. This was incubated for at least 1 hour.
100 μl of 1 mM EDTA and 200 μl H2O2 30% were added. This mixture was incubated for 24 hours at room temperature and overnight at 50° C. thereafter.
Ultima Gold (10 ml) was added as the scintillation fluid.
Radioactivity was measured by LSC.
The increase of blood circulation time was assessed, wherein: […]

[3] = Encapsulation efficiency of prednisolone phosphate in liposomes (HPLC); type: physicochemical; settings: prednisolone phosphate-containing DPPC/cholesterol liposomes
[4] = Particle size and polydispersity of liposomes by dynamic light scattering; type: physicochemical; settings: prednisolone phosphate-containing DPPC/cholesterol liposomes, light scattering (Malvern Zeta-sizer)
Experimental: The lipid loss during preparation of the liposomes was 25%, determined by comparing the final radioactivity of the preparation with the activity before the extrusion procedure. The suspension of liposomes was stored in a nitrogen atmosphere at 4° C.
Liposomes were prepared using the film method, as described in example 23. Instead of egg phosphatidylcholine dipalmitoyl phosphatidylcholine was used. 5 mM HEPES buffer was added to the dry lipid film and shaken during 5 minutes in the presence of glass beads in order to enable complete hydration of the lipid film. The liposomes were sized by extrusion 12 times through 2 stacked PC membranes having pore sizes of […]. The resulting liposome dispersions were dialysed (MWCO 10,000) and average particle sizes were determined using dynamic light scattering technique. See table 1 for the properties of the liposomal preparations.

Substance	Storage stability compared with PEG-DSPE reference liposomes [1]	Blood circulation time of the liposomes [2]	Encapsulation efficiency of the prednisolone phosphate [3] [%]	Mean particle size [4] [nm]
Poly(2-hydroxyethyl)-L-asparagine DODASuc [Ex. 14]	performed slightly better	Results similar to those obtained with the corresponding PEG-grafted liposomes	–	–
Poly(D,L-methionine Sulfoxide) DODASuc [Ex. 18]	–	Results similar to those obtained with the corresponding PEG-grafted liposomes	–	–
PEG-distearoylphosphatidylethanol-amine [PEG-DSPE]	–	–	2.6	~90
PHEG-Diaminobutane DODASuc [Ex. 8.1]	–	Results similar to those obtained with the corresponding PEG-grafted liposomes	–	–
